This experiment has as its target SARS-CoV-2南非株(B.1.351)活病毒的S蛋白 (SARS-CoV-2 B.1.351). The experiment can be described thus: cell-based or functional assay.

The values that follow come from patent publication CN113929774A (INST MICROBIOLOGY CAS, dated 2022).

B1: 9K抗体 (antibody, V domains shown)
VH: EVQLVESGGGVVQPGRSLGLSCAVSGFTFSSYAMHWVRQAPGKGLEWVALISNDGTIDSYADSVKGRFTISRDNSKNTLYLRMSSLRAEDTAVYYCARDKEQLVPTFDYWGQGTLVTVSS
VL: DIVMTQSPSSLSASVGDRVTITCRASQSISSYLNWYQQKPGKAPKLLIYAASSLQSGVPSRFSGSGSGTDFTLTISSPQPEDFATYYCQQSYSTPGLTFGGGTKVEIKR
Consider B1, for which the “中和滴度(半抑制浓度，IC50), live virus CPE assay on Vero E6 cells” value amounted to 11.5 µg/mL.
